Assay results taken from PMC8193015.
Where two headings read alike, the source gives them in different places. Ends that are not written are not given here.

What was measured:
[1] = molecular target: soluble DR4 (sDR4) recombinant protein (human); test: ELISA
[2] = molecular target: “empty” DQ6 (DQA1*01:02/DQB1*06:02) with leucine zippers displayed on yeast as a noncovalent αβ heterodimer (human); test: flow cytometry on cells
[3] = molecular target: soluble DQ6 (sDQ6) recombinant protein, CLIP87–101 linker cleaved by thrombin (human); test: ELISA
[4] = molecular target: soluble DQ6 (sDQ6) recombinant protein, CLIP87–101 linker cleaved by thrombin (human); test: ELISA; remark: listed apart in the source
[5] = molecular target: “empty” DQ6 (DQA1*01:02/DQB1*06:02) with leucine zippers displayed on yeast as a noncovalent αβ heterodimer (human); test: flow cytometry on cells; remark: listed apart in the source

Molecule	%Competition [2]	other results
HA306–318 peptide, nonbiotinylated	–	%Competition at [competitor]:[indicator] = 10 [1]: 75%
HCRT53–67 peptide (from UniProt O43612 53-67)	> 50%	–
HCRT85–99 peptide (from UniProt O43612 85-99)	> 50%	–
HCRT21–35 peptide (from UniProt O43612 21-35)	> 50%	–
HCRT81–95 peptide (from UniProt O43612 81-95)	> 50%	–
HCRT57–71 peptide (from UniProt O43612 57-71)	> 50%	–
HCRT1–15 peptide (from UniProt O43612 1-15)	> 50%	–
SARS-CoV-2 spike peptide S1058–1074 (from UniProt P0DTC2 1058-1074)	–	fold weaker BA than HA306–318 (IC50 normalised to HA306–318) [1]: 20 fold
HCRT89–103 peptide (from UniProt O43612 89-103)	> 75%	%Competition at [competitor]:[indicator] = 10 [2]: > 75%; %Competition at [competitor]:[indicator] = 100 [3]: > 75%
HCRT25–39 peptide (from UniProt O43612 25-39)	> 50%	–
SARS-CoV-2 spike peptide S652–668 (from UniProt P0DTC2 652-668)	–	%Competition at [competitor]:[indicator] = 100 [1]: < 50%
MNLPSTKVSWAAV (not fully specified) [HCRT1–13 peptide, nonbiotinylated]	–	%Competition at [competitor]:[indicator] = 10 [4]: 75%; %Competition at [competitor]:[indicator] = 10 [5]: 75%; IC50 [5]: 30 µM
